# Laboratory results: patent publication US20230416785A1, “NUCLEASE AND APPLICATION THEREOF” (CRISP-HR Therapeutics, Inc., priority 2020, published 2023)
# Entries after “also recorded” stand apart in the source; their conditions may differ.
# Tests used:
# U2OS cells = experiment: RPA foci quantification in U2OS cells; type: cell-based, human
# Method: After two days cells, cells were prepared for imaging as in Murkherjee et al 2015. Cytoplasm was extracted via two sequential 10 minute washes on ice consisting of Extraction Buffer 1: 10 mM PIPES, pH 7.0; 100 mM NaCl; 300 mM Sucrose; 3 mM MgCl2; 1 mM EGTA, 0.5% Triton X-100 and Extraction Buffer 2: 10 mM Tris-HCl, pH 7.5; 10 mM NaCl; 3 mM MgCl2, 1% Tween 40, 0.5% sodium deoxycholate. Cells were then fixed using 4% PFA for 20 minutes at RT, then washed three times with PBST, blocked in 5% goat-serum for 30 minutes at RT, then incubated overnight at 4° C. with 1:1000 dilution of mouse anti-RPA (Calbiochem; Catalog no: NA191). Next day cells were washed 5× with PBST with 20 minutes per wash, then incubated overnight at 4° C. with a 1:1000 dilution of anti-mouse Alexa fluor 568 (Thermo Fisher). Cells were washed next day cells were washed 5× with PBST with 20 minutes per wash, then mounted in Vectashield with DAPI (Vector Labs; Catalog no: H-1200), and imaged at 10× using an Leica Stellaris Confocal Microscope. Foci per cell were quantified using a custom script to identify number of RPA foci per cell. […] After two days cells were fixed, then cytoplasm extracted on ice, then remaining nuclei were stained for RPA. At the end of staining, nuclei were labeled with DAPI and cells were imaged via confocal microscopy. Post-imaging nuclei identification and RPA thresholding allowed quantification of the number of RPA foci per nuclei.
# [1] = system: Safe Harbor Site (SHS)-231; experiment: SHS-231 mNeon knock-in in H1299 cells; type: cell-based, human
# Description: After reaching confluency, cells were tryspinized and seeded in 6 well plates, which were then imaged at 10× magnification using a Leica THUNDER Epifluorescent microscope. After imaging, thresholds and ROIs for mNeon+ cells were generated using FIJI (ImageJ).
# After 7 days, cells were tryspinized and transferred to 6 well plates, and grown for an additional 7 days. On Day 14, media was replaced with HBSS (to reduce background for imaging) and imaged using a Cytation5 imaging system. Imaging was performed by taking a 6×6 stitched image in the middle of the well using an 10× magnification lens, where both brightfield and RFP images were acquired. HDR rates were quantified via ImageJ, two independent replicates were performed per treatment.
# endogenous H2B = experiment: H2B-mNeon knock-in HDR quantification in K562 cells; type: cell-based, human; details: H2B-mNeon RT
# Method: After two days, cells were fixed in 4% PFA washed in PBS, then directly imaged, with cells showing nuclear localized fluorescence counted as successful HDR events.
# K562 were grown in 24 well plates with RPMI-1640 supplemented with 5% FBS until roughly 70% confluent. At that time cells were either electroporated using the mNeon system (Invitrogen) using optimized settings for K562 cells, or lipofectamine 3000 again following manufactures instructions. Cells were then returned to 24 well plates with fresh media and grown for at least two days before being used in downstream analysis.
# After 2 days, cells attached to coverslips coated with 0.01% poly-1-lysine, and were fixed in 4% PFA (Thermofisher) for 15 minutes at RT. After fixation, cells were washed 3× in PBS, mounted in 50% glycerol and imaged on a Nikon Eclipse E600 with standard FITC filters. For quantification, random patches of cells (usually between 8-15 cells per image) were identified via Brightfield, then fluoresce images were taken with constant illumination and exposure time (100%, and 110 ms respectively).
# CDH1 = experiment: CDH1:mCherry knock-in in HEK293 cells; type: cell-based, human; details: Ecad-G1
# Method: After three days, media was replaced with HBSS (to reduce background for imaging) imaged using an Cytation5 imaging system. Imaging was performed by taking a 6×6 stitched image in the middle of the well using an 10× magnification lens, where both brightfield and RFP images were acquired. HDR rates were quantified via ImageJ, two independent replicates were performed per treatment. FIG. 13A illustrates a Cadherin1:mCherry RT design showing the human genomic region surrounding the last exon (exon 16) of Cadherin1. Two different gRNAs are denoted by black arrows (G1, G2), with arrow direction indicating the targeted strand. A repair template was constructed containing about 750 bp long 5′ and 3′ Homology arms, exon 16 of Cadherin1, silent mutations introduced to prevent gRNA binding to the RT, and a direct fusion of the fluorescent protein mCherry. FIG. 13B illustrates quantification of Cadherin1:mCherry HDR rate in H1299 cells showing the average mCherry+ cells per image section (>10 for all conditions) imaged at day 3 post transfection.
# HBB amplicon = experiment: In-vitro exonuclease assay with purified proteins; type: biochemical, human; details: 30 nM protein, 3 nM HBB amplicon, 37° C., 60 minutes
# Method: Reactions were then electrophoresed and visualized on an agarose gel. FIG. 5C illustrates quantification of exonuclease activity. Quantification of exonuclease activity assayed in FIG. 5B. 3 replicates were performed for each reaction and were quantified via FIJI (ImageJ) and then normalized to control amplicon levels.
# Reactions were then electrophoresed and visualized on an agarose gel.
# DNA was isolated from wildtype K562 cells, and amplified using standard Taq DNA polymerase and HBB-out-F (5′-[…]-3′ (SEQ ID NO: 125)) and HBB-out-R (5′-[…]-3′ (SEQ ID NO: 126)), Tm=56 for 35 cycles, and purified using the Qiagen PCR cleanup kit. […] The samples were then electrophoresed on a standard 1% TAE agarose gel stained with gel green.
# A549 cells = experiment: Cellular toxicity / viability of transfected A549 cells (resazurin assay); type: cell-based
# Method: A549 cells were chosen as they are both facile to grow and transfect, cost effective in terms of media and other reagents, and importantly have retained a functional p53 gene.
# Cells were then allowed to recover for one additional day, after which viability was cells were incubated with resazurin (Millipore Sigma) for 4 hours, after which fluorescence was quantified by a plate reader (Perkin Elmer).
# Unless otherwise noted, adherent cells (A549 or H1299) were seeded in 96 well plates and grown in either 50/50 F-12/DMEM or RPMI-1640 respectively, supplemented with 5% FBS and grown to roughly 70% confluency. Cells were then transfected with either Cal-Phos as described in Chen 2012 or Lipofectamine 3000 (Thermofisher). Fresh media was exchanged the next day and cellular viability was quantified on day 2.
# 20 μL of 0.15 mg/mL Resazurin solution was added to cells either plated in 96 well plates for all cell lines, which were then incubated for ˜4 hours at 37° C. Cellular toxicity was quantified using a Tecan SpectraFlour Plus plate reader (Tecan) using a 535/595 filter set. Raw data was then normalized to the mean of the untransfected controls and plotted as described.
# 20 μL of 0.15 mg/mL Resazurin solution was added to cells either plated in 96 well plates for all cell lines, which were then incubated for ˜4 hours at 37° C. Cellular toxicity was quantified using a Tecan SpectraFlour Plus plate reader (Tecan) using a 535/595 filter set. Raw data was then normalized to the mean of the untransfected controls and plotted as described. […] Stats: All two-sided students T-test with unequal variance.
# [2] = SHS-231, hH2B-G4 or B-Catenin1, vs non-treated control cells
# [3] = SHS-231 G1, 14 Days, stitched images
substance,measurement,setting,value
Cas9-HR 8: hExo1(1-352)-Cas9 fusion of FIG. 1A; E. coli codon optimized vectors SEQ ID NO: 68 and 69,percent cells with 1-10 RPA foci,U2OS cells; [2],increased the percentage of cells with RPA foci
same,percent cells with any RPA foci,U2OS cells; [2],increased the percentage of cells with RPA foci
same,percent cells with 11-100 RPA foci compared to Cas9,U2OS cells; targeting hH2B and Beta-Catenin1,significant decrease in cells with 11-100 RPA foci
same,cellular fluorescence (expression) levels of mNeon+ cells compared to Cas9,[1]; 14 days,much more uniform and lower expression levels
same,absolute numbers of mNeon+ cells,"[1]; SHS-231-G1, SHS-231-mNeon RT, 14 days post-transfection",3652
same,mNeon cell counts normalized to Cas9,"[1]; SHS-231-G2, two independent experiments",increase of HDR rates
same,GFP+ cells compared to Cas9,[1]; [3],significantly more GFP+ cells
same,total cells compared to Cas9,[1]; [3],significantly more total cells
same,PCR of 5′ and 3′ knock-in junctions,endogenous H2B; genome specific plus RT specific primers,Successful amplification
same,HDR rate (cells with nuclear localized mNeon fluorescence),"endogenous H2B; hH2B-G4, two days, compared to Cas9-HR 4 or Cas9",significant increase in HDR rate
same,HDR rates compared to Cas9 (normalized knock-in rates),CDH1,~3.5 ×
same,absolute mCherry+ cells relative to Cas9-NT or repair template alone,CDH1,significant increases in mCherry+ cells
same,numbers of mCherry+ cells compared to repair template,CDH1,significantly increased numbers of mCherry+ cells
same,exonuclease activity (reduction of full length HBB amplicon),HBB amplicon,significant reduction in the full length HBB amplicon; also recorded: significant exonuclease activity
same,cellular viability relative to Cas9,"A549 cells; Cadherin1 G1 or G2, Day 2 post transfection",significant increases in cellular viability
same,cellular toxicity compared to Cas9,"A549 cells; H2B-G4 guide, lipofectamine 3000",significant reduction in cellular toxicity
same,cellular toxicity,"A549 cells; Int-G2 and Int-G3, CalPhos",dramatic reduction in cellular toxicity
same,cellular viability relative to Cas9,"A549 cells; SHS-231 G1, G2 or G3, Day 2 post transfection",significant increases in cellular viability
